{"source": "paper PMC9570212", "about": "“PAUF Induces Migration of Human Pancreatic Cancer Cells Exclusively via the TLR4/MyD88/NF-κB Signaling Pathway” (International Journal of Molecular Sciences, 2022)", "biological_target": "human TLR4 overexpressed in Panc-1 cells (Panc-1_TLR4^OE) (human, UniProt O00206 24-839)", "sequence (O00206 24-839)": "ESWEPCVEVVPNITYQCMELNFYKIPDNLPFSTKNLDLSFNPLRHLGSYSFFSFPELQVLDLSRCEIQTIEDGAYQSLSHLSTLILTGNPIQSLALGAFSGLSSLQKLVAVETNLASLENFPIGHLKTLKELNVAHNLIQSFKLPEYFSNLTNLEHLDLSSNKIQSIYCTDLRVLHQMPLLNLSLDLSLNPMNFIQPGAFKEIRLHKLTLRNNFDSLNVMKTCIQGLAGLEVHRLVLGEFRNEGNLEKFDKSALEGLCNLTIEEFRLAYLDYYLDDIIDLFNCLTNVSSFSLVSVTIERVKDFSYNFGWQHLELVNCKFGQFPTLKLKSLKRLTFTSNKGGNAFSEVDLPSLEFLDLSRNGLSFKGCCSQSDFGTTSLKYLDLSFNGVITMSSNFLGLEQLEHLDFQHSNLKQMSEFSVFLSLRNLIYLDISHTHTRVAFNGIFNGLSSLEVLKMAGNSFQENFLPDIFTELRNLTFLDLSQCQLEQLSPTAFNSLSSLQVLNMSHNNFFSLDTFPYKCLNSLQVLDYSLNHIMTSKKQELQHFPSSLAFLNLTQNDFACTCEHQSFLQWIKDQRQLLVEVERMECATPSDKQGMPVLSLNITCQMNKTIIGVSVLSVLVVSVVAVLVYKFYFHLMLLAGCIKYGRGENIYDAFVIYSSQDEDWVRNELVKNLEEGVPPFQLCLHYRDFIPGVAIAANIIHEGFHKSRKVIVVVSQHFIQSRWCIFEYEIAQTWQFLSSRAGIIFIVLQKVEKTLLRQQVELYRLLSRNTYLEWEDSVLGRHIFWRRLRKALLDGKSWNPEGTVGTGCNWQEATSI", "assay": "cell-based or functional assay", "data": [{"binder": "recombinant pancreatic adenocarcinoma up-regulated factor (PAUF) (ligand, UniProt Q96DA0 17-172, looked up) GKMYGPGGGKYFSTTEDYDHEITGLRVSVGLLLVKSVQVKLGDSWDVKLGALGGNTQEVTLQPGEYITKVFVAFQAFLRGMVMYTSKDRYFYFGKLDGQISSAYPSQEGQVLVGIYGQYQLLGIKSIGFEWNYPLEEPTTEPPVNLTYSANSPVGR", "values": [{"measurement": "NF-κB dual-luciferase reporter activity in Panc-1 cells transiently overexpressing TLR4 (rPAUF 0.1 µg/mL), relative to Panc-1_trans Ctrl cells; no effect of rPAUF in control cells", "value": 4.6, "unit": "fold"}]}]}
